Results as given in US20210101973A1.
Ends that are not written are not given here.

Assays:
[1] = target: wild-type GHSR stably expressed in an independent cell line (calcium mobilization assay), Q92847; assay: cell-based or functional assay
[2] = target: GHSR on the PathHunter U2OS GHSR beta-Arrestin Cell Line (DiscoverX), Q92847; assay: cell-based or functional assay

Sequence of wild-type GHSR stably expressed in an independent cell line (calcium mobilization assay), Q92847 (Q92847 whole entry): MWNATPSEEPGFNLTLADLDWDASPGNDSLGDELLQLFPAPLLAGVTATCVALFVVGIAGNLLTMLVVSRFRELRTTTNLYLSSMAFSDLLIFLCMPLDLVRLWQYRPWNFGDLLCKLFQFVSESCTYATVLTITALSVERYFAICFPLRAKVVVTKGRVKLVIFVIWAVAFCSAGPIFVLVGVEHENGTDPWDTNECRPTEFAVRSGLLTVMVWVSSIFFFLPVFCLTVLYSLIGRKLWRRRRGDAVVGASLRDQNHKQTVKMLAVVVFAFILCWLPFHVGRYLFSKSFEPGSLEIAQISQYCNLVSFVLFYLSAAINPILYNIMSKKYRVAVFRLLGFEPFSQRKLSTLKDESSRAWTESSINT

B1: synthetic LEAP2 peptide (mature peptide of human LEAP2) (peptide)
peptide: MTPFWRGVSLRPIGASCRDDSECITRLCRKRRCSLSVAQE
modifications: disulfide (positions not given here); also: labeled with Alexa 647, site not given here
[1]
  IC50 of abrogation of ghrelin-induced GHSR activity, calcium mobilization (FLUO-3): 11.6 nM
[2]
  IC50 of inhibition of ghrelin-induced GHSR activation, PathHunter beta-arrestin assay, antagonist format (ghrelin 13 nM): 6.74 nM
